The target of experiment [1] is ErbB2 (as used in the ErbB2 ELISA of the Fab mutants) (human) (UniProt P04626). The experiment is described as follows: ELISA.
Experiment [2] concerns the target ErbB2 ECD labeled with an infrared dye (human) (UniProt P04626). Kind of experiment: cross-linking.

Data on two substances can be found in article PMC4227728.

In experiment [1], Herceptin Fab-AcrK103 registered a fold reduction of binding against the WT Fab of 20 fold.
In the case of Herceptin Fab-VSF92, the percent of ErbB2 ECD cross-linked in experiment [2] turned out to be 80%.
